Data as given in US20230192896A1 (BIOVERATIV THERAPEUTICS, published 2023).
Substitutions are numbered along the chain they refer to.

B1: BIIB-9-606 (antibody, V domains shown)
VH: QVQLVQSGAEVKKPGASVKVSCKASGYTFTSYYMHWVRQAPGQGLEWMGIINPSGGSTSYAQKFQGRVTMTRDTSTSTVYMELSSLRSEDTAVYYCARTKWSSSPYGMDVWGQGTTVTVSS
VL: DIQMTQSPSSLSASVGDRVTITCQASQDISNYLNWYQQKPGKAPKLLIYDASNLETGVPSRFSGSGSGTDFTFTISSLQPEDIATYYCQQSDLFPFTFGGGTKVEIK
notes: IgG
B2: BIIB-9-582 (antibody, V domains shown)
VH: B1 VH with H35V, T99A, K100P, W101T, S102Y, S103F, S104Y, P105S
VL: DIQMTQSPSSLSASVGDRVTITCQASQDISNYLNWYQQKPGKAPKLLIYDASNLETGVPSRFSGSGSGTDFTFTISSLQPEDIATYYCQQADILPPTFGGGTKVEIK
notes: IgG
B3: BIIB-9-569 (antibody, V domains shown)
VH: B1 VH with T99D, K100G, W101S, S102G, S103Y, G107S, M108F, V110P, T116L
VL: DIQMTQSPSSLSASVGDRVTITCQASQDISNYLNWYQQKPGKAPKLLIYDASNLATGVPSRFSGSGSGTDFTFTISSLQPEDIATYYCQQADDFPFTFGGGTKVEIK
notes: IgG
B4: BIIB-12-1322 (antibody, V domains shown)
VH: QVQLVQSGAEVKKPGASVKVSCKASGYTFTSYYIHWVRQAPGQGLEWMGIINPSGGSTSYAQKFQGRVTMTRDTSTSTVYMELSSLRSEDTAVYYCARSRQRHRGDWYFDLWGRGTLVTVSS
VL: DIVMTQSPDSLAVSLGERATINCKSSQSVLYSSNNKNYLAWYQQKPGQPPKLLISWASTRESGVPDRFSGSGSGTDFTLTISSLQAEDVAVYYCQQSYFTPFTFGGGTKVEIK
notes: IgG
B5: BIIB-12-1325 (antibody, V domains shown)
VH: QVQLVQSGAEVKKPGASVKVSCKASGYTFTSYYMVWVRQAPGQGLEWMGIINPSGGSTSYAQKFQGRVTMTRDTSTSTVYMELSSLRSEDTAVYYCARGGRYMLDPWGQGTLVTVSS
VL: DIQMTQSPSTLSASVGDRVTITCRASQSISSWLAWYQQKPGKAPKLLIYKASSLESGVPSRFSGSGSGTEFTLTISSLQPDDFATYYCQQSNRYPRTFGGGTKVEIK
notes: IgG
B6: BIIB-12-1326 (antibody, V domains shown)
VH: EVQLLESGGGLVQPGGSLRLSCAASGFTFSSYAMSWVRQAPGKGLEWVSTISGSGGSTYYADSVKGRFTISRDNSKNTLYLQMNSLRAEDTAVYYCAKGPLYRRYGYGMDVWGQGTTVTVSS
VL: EIVLTQSPGTLSLSPGERATLSCRASQSVRSSYLAWYQQKPGQAPRLLIYGASSRATGIPDRFSGSGSGTDFTLTISRLEPEDFAVYYCQQAYSSPLTFGGGTKVEIK
notes: IgG
B7: BIIB-12-1333 (antibody, V domains shown)
VH: QVQLVQSGAEVKKPGASVKVSCKASGYTFTSYYMVWVRQAPGQGLEWMGIINPSGGSTSYAQKFQGRVTMTRDTSTSTVYMELSSLRSEDTAVYYCARVSRRDYPLAFDIWGQGTMVTVSS
VL: EIVMTQSPATLSVSPGERATLSCRASQSVSSNLAWYQQKPGQAPRLLIYGASTRATGIPARFSGSGSGTEFTLTISSLQSEDFAVYYCQQVNTWPTFGGGTKVEIK
notes: IgG
B8: BIIB-9-608 (antibody, V domains shown)
VH: QLQLQESGPGLVKPSETLSLTCTVSGGSISSSSYYWGWIRQPPGKGLEWIGSIYYSGSTYYNPSLKSRVTISVDTSKNQFSLKLSSVTAADTAVYYCARDRLETSEAGMDVWGQGTTVTVSS
VL: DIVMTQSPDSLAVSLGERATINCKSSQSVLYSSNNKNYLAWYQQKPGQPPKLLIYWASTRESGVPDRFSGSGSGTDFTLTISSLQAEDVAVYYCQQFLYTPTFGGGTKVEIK
notes: IgG
B9: BIIB-9-590 (antibody, V domains shown)
VH: QVQLVQSGAEVKKPGASVKVSCKASGYTFTSYYMHWVRQAPGQGLEWMGIINPSGGSTSYAQKFQGRVTMTRDTSTSTVYMELSSLRSEDTAVYYCARDQEWAYYGMDVWGQGTTVTVSS
VL: EIVLTQSPATLSLSPGERATLSCRASQSVSSYLAWYQQKPGQAPRLLIYDASNRATGIPARFSGSGSGTDFTLTISSLEPEDFAVYYCQQVDNFPLTFGGGTKVEIK
notes: IgG
B10: BIIB-12-1324 (antibody, V domains shown)
VH: B9 VH with H35V, D99L, Q100P, E101R, W102Y, A103S, Y104K, Y105R, M107L, T115M
VL: EIVMTQSPATLSLSPGERATLSCRASQSVSSYLAWYQQKPGQAPRLLIYDSSNRATGIPARFSGSGSGTDFTLTISSLEPEDFAVYYCQQLVSWPTFGGGTKVEIK
notes: IgG
B11: BIIB-9-616 (antibody, V domains shown)
VH: QVQLVQSGAEVKKPGASVKVSCKASGYTFTSYYMHWVRQAPGQGLEWMGIINPSGGSTSYAQKFQGRVTMTRDTSTSTVYMELSSLRSEDTAVYYCARGGSKYFFDLWGRGTLVTVSS
VL: B9 VL with L4M, L13V, Y32S, D50G, N53T, D70E, E79Q, P80S, V91A, L96F
notes: IgG
B12: BIIB-9-627 (antibody, V domains shown)
VH: QVQLVQSGAEVKKPGASVKVSCKASGYTFTSYYMHWVRQAPGQGLEWMGIINPSGGSTSYAQKFQGRVTMTRDTSTSTVYMELSSLRSEDTAVYYCARADYDYWSGYGGLGMDVWGQGTTVTVSS
VL: not shown
notes: IgG
B13: BIIB-9-621 (antibody, V domains shown)
VH: QLQLQESGPGLVKPSETLSLTCTVSGGSISSSSYYWGWIRQPPGKGLEWIGSIYYSGSTYYNPSLKSRVTISVDTSKNQFSLKLSSVTAADTAVYYCARDGSISGSRFDYWGQGTLVTVSS
VL: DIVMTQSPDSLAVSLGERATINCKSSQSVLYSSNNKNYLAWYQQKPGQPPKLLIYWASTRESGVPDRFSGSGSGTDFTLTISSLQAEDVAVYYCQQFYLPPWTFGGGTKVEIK
notes: IgG
B14: BIIB-9-592 (antibody, V domains shown)
VH: QLQLQESGPGLVKPSETLSLTCTVSGGSISSNSYYWGWIRQPPGKGLEWIGSIYYSGSTYYNPSLKSRVTISVDTSKNQFSLKLSSVTAADTAVYYCARDSNYDSSGYALYYYGMDVWGQGTTVTVSS
VL: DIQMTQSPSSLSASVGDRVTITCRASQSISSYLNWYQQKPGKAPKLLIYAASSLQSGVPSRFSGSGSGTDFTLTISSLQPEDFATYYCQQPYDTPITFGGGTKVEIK
notes: IgG
B15: BIIB-12-1319 (antibody, V domains shown)
VH: QVQLVESGGGVVQPGRSLRLSCAASGFTFSSYGMHWVRQAPGKGLEWVAVISYDGSNKYYADSVKGRFTISRDNSKNTLYLQMNSLRAEDTAVYYCARTGYHRSVYYWGQGTLVTVSS
VL: EIVMTQSPATLSVSPGERATLSCRASQSVSSNLAWYQQKPGQAPRLLIYGASTRATGIPARFSGSGSGTEFTLTISSLQSEDFAVYYCQQASNFPPTFGGGTKVEI
notes: IgG
B16: BIIB-12-1330 (antibody, V domains shown)
VH: B15 VH with R98K, T99G, Y101S, H102A, S104W, V105I, Y106N, Y107I, L113T
VL: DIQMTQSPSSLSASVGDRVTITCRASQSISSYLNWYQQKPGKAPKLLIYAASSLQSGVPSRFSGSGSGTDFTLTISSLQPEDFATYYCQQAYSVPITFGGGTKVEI
notes: IgG
B17: BIIB-9-566 (antibody, V domains shown)
VH: QVQLVQSGAEVKKPGASVKVSCKASGYTFTSYYMVWVRQAPGQGLEWMGIINPSGGSTSYAQKFQGRVTMTRDTSTSTVYMELSSLRSEDTAVYYCARVPTYRYSYLAFDIWGQGTMVTVSS
VL: EIVMTQSPATLSVSPGERATLSCRASQSVSSSLAWYQQKPGQAPRLLIYGASTRATGIPARFSGSGSGTEFTLTISSLQSEDFAVYYCQQHDNWPPTFGGGTKVEIK
notes: IgG
B18: BIIB-12-1329 (antibody, V domains shown)
VH: QVQLVESGGGVVQPGRSLRLSCAASGFTFSSYGMHWVRQAPGKGLEWVAVISYDGSNKYYADSVKGRFTISRDNSKNTLYLQMNSLRAEDTAVYYCARGGAGSRYFQHWGQGTLVTVSS
VL: B17 VL with L11K, S32N, G50S, H91V, D92F, E105K
notes: IgG
B19: BIIB-12-1327 (antibody, V domains shown)
VH: QVQLVESGGGVVQPGRSLRLSCAASGFTFSSYGMHWVRQAPGKGLEWVAVISYDGSNKYYADSVKGRFTISRDNSKNTLYLQMNSLRAEDTAVYYCAKLGLARGGGYGMDVWGQGTTVTVSS
VL: B17 VL with L11Q, S12Y, S32N, H91Y, D92H, W94F
notes: IgG
B20: BIIB-12-1328 (antibody, V domains shown)
VH: QLQLQESGPGLVKPSETLSLTCTVSGGSISSSSYYWGWIRQPPGKGLEWIGSIYYSGSTYYNPSLKSRVTISVDTSKNQFSLKLSSVTAADTAVYYCARDPAYYSGHDYYYYGMDVWGQGTTVTVSS
VL: B17 VL with S32N, H91P, D92N, N93S, W94Y, P96L
notes: IgG
B21: BIIB-9-622 (antibody, V domains shown)
VH: B17 VH with V35H, V99D, P100G, T101A, Y102T, R103T, Y104V, A108S
VL: B17 VL with D92S, N93T
notes: IgG
B22: BIIB-9-581 (antibody, V domains shown)
VH: QVQLVQSGAEVKKPGASVKVSCKASGYTFTSYYMHWVRQAPGQGLEWMGIINPSGGSTSYAQKFQGRVTMTRDTSTSTVYMELSSLRSEDTAVYYCARDPLYYREGYVFDYWGQGTLVTVSS
VL: DIQMTQSPSSLSASVGDRVTITCRASQSISSYLNWYQQKPGKAPKLLIYAASSLQSGVPSRFSGSGSGTDFTLTISSLQPEDFATYYCQQSDLFPFTFGGGTKVEIK
notes: IgG
B23: BIIB-12-1323 (antibody, V domains shown)
VH: QVQLVQSGAEVKKPGASVKVSCKASGYTFTSYYIHWVRQAPGQGLEWMGIINPSGGSTSYAQKFQGRVTMTRDTSTSTVYMELSSLRSEDTAVYYCARGRRFPRGLDYWGQGTLVTVSS
VL: B22 VL with L11V, S28G, Y32W, N34A, S91A, D92N, L93I
notes: IgG
B24: BIIB-9-585 (antibody, V domains shown)
VH: QLQLQESGPGLVKPSETLSLTCTVSGGSISSSDYYWGWIRQPPGKGLEWIGSIYYSGSTYYNPSLKSRVTISVDTSKNQFSLKLSSVTAADTAVYYCAREVGTYYYGLDFWFDPWGQGTLVTVSS
VL: B22 VL with L11V, S28G, Y32W, N34A, S91A, D92N, L93S, F94Y, F96I
notes: IgG
B25: BIIB-12-1332 (antibody, V domains shown)
VH: B23 VH with I34M, H35S, G99L, R100G, F102K, P103S, G105V, L106F, Y108I, L114M
VL: B22 VL with L11V, S28G, Y32W, N34A, S91V, D92N, L93S, F96L, I106F
notes: IgG
B26: BIIB-9-587 (antibody, V domains shown)
VH: B9 VH with D99G, Q100P, E101P, W102G, A103Y, Y104E, G106Y, Q112K
VL: B22 VL with L11V, S28G, Y32W, N34A, S91A, L93S
notes: IgG

Experiments:
FIXa-SM (FIXa+EGR-CMK) = molecular target: T1, FIXa-SM (FIXa+EGR-CMK) (human, UniProt P00740 47-191; P00740 227-461, EGR-CMK (L-Glu-Gly-Arg chloromethyl ketone) covalently bound to the active site); assay: BLI; class meaning: paragraph 914
T1 construct: BLI antigen bought from Haematologic Technologies (HCIXA-EGR); also called FIXa with substrate mimic

[1] = molecular target: T2, non-activatable Factor X (FXn) (Homo sapiens (Human), UniProt P00742 41-488, single biotin on the C-terminal BioTag); assay: BLI; class meaning: paragraph 285
T2 construct: also called BIIB-FX-015

| Binder | binding result (FIXa-SM (FIXa+EGR-CMK)) | binding result [1] |
| --- | --- | --- |
| B1 | binds |  |
| B2 | binds |  |
| B3 | binds |  |
| B4 |  | binds |
| B5 |  | binds |
| B6 |  | binds |
| B7 |  | binds |
| B8 | binds |  |
| B9 | binds |  |
| B10 |  | binds |
| B11 | binds |  |
| B12 | binds |  |
| B13 | binds |  |
| B14 | binds |  |
| B15 |  | binds |
| B16 |  | binds |
| B17 | binds |  |
| B18 |  | binds |
| B19 |  | binds |
| B20 |  | binds |
| B21 | binds |  |
| B22 | binds |  |
| B23 |  | binds |
| B24 | binds |  |
| B25 |  | binds |
| B26 | binds |  |
